In article PMC10691697, “A small molecule exerts selective antiviral activity by targeting the human cytomegalovirus nuclear egress complex” (PLOS Pathogens, 2023):

Tests used:
Test in all cases: AlphaScreen or HTRF
[1] = target: His-tagged HCMV UL50 (residues 1-169) C54S (human cytomegalovirus (HCMV)) (UniProt P16791)
[2] = target: His-tagged HCMV UL50 (residues 1-169) C79S (human cytomegalovirus (HCMV)) (UniProt P16791)
[3] = target: His-tagged HCMV UL50 (residues 1-169) C35N (human cytomegalovirus (HCMV)) (UniProt P16791)
[4] = target: T1, Myc-tagged HCMV UL53 (residues 50-292) with glycine-serine linker (human cytomegalovirus (HCMV), UniProt P16794 50-292); settings: both partners purified
T1 construct: source: E. coli BL21 (DE3) RIPL, purified (glutathione-agarose, on-column PreScission digestion, size exclusion chromatography); not shown: GST, N-terminal, cleaved; Myc, N-terminal, kept
T1 sequence: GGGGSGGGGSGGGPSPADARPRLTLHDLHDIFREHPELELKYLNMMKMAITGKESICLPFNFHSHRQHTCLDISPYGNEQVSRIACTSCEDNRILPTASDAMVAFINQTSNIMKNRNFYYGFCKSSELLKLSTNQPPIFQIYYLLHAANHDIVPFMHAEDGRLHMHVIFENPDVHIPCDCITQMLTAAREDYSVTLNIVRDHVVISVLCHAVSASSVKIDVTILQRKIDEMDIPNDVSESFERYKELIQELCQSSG

Myc-tagged HCMV UL53 (residues 50-292) with glycine-serine linker (from UniProt P16794 50-292) (domain or fragment)
Kd [1]: 240 nM | Kd [2]: 340 nM | Kd [3]: 150 nM

B1: His-tagged HCMV UL50 (residues 1-169) (domain or fragment)
chain: MEMNKVLHQDLVQATRRILKLGPSELRVTDAGLICKNPNYSVCDAMLKTDTVYCVEYLLSYWESRTDHVPCFIFKNTGCAVSLCCFVRAPVKLVSPARHVGEFNVLKVNESLIVTLKDIEEIKPSAYGVLTKCVVRKSNSASVFNIELIAFGPENEGEYENLLRELYAK
notes: also called His-UL50; source: E. coli BL21 (DE3) RIPL, purified (nickel Sepharose, size exclusion chromatography); not shown: His, N-terminal, kept
Kd [4]: 300 nM
